Reference: patent US20230122503A1 (Janssen / Centocor, published 2023)

How the values were obtained:
[1] = molecular target: T1, human prostate-specific membrane antigen (PSMA), full length, on cells (human, UniProt Q04609 1-750); assay: flow cytometry on C4-2B cells (high PSMA), anti-human AF647 detection, four-parameter fit
T1 construct: also called FOLH1; PSMA on C4-2B cells
Experimental: The affinity of the purified antibodies was also determined on C4-2B, a cell line with high PSMA levels. Briefly, C4-2B cells were washed once with 1×PBS and incubated with 3 mls/T150 flask of cell dissociation buffer until detached, the cells were collected and strained through a […] sieve. Cells were resuspended at 0.5×10e6 cells/mL in staining buffer (BD #554657) and seeded at 25,000 cells/well in V bottom plate (Corning 3894). To each well, 50 μl of Ab 4-fold serially diluted in staining buffer from 120 nM (60 nM final) were added at 2× final concentration. Control mAbs were added at 2 μg/ml, 1 μg/ml final (controls were: —secondary only and isotype control). All primary antibodies were incubated with the cells for 60 min at 4° C. After the primary incubation, 100 μl staining buffer were added to all wells and the cells were washed by pelleting by centrifugation at 300×g 5 min and buffer removed by flicking the plate. Then cells were similarly washed again with 200 μl staining buffer. […] After 30 minutes incubation at 4° C., the cells were washed as described above with 150 ul staining buffer, followed by a final wash with 200 ul running buffer (Running buffer is staining buffer plus 1 mM EDTA and 0.1% pluronic acid). Cells were resuspended in 30 ul/well running buffer with 1:1000 Sytox Blue viability stain (Invitrogen #S34857) and stored at 4° C. until read on the flow cytometer. Plates were read on an IntelliCyt IQue 3 instrument. Briefly, cells were gated on live cells, then populations were gated on singlets. Antibody binding was assessed by AF647 fluorescence at 647 nm. Data was analyzed in GeneData Screener with signal/background AF647 fluorescence plotted against antibody concentration.

[2] = molecular target: T2, PSMW39, human PSMA ECD (Lys44-Ala750), N-6xHis (human, UniProt Q04609 44-750); assay: SPR (Biacore 8K), antibody captured on goat anti-Fc C1 chip, PSMA ECD as analyte, 1:1 Langmuir fit
T2 construct: Made in Expi-CHO cells; also called PSMW39.002; recombinant human ECD
Experimental: The binding affinity of purified anti-PSMA antibodies to the recombinant human ECD was determined by surface plasmon resonance (SPR) using a BIACORE 8K instrument. The antibodies were captured on a goat anti-Fc antibody-modified C1 chip and titrated with 3-fold serial dilutions of PSMA antigen spanning concentrations of 1 nM to 11.1 nM. The association and dissociation were monitored for 3 and 15 minutes, respectively, using a flow rate of 50 μL/min. Raw binding data was referenced by subtracting the analyte binding signals from blanks and analyzed using a 1:1 Langmuir binding model using the Biacore Insight evaluation software to obtain the kinetics which were used to calculate the binding affinity.

[3] = molecular target: T1, human prostate-specific membrane …; assay: cell-based or functional assay
[4] = molecular target: T1, human prostate-specific membrane …; assay: cell-based or functional assay; remark: listed apart in the source

T2 sequence (Q04609 other isoform, or with tags, fused parts or gaps): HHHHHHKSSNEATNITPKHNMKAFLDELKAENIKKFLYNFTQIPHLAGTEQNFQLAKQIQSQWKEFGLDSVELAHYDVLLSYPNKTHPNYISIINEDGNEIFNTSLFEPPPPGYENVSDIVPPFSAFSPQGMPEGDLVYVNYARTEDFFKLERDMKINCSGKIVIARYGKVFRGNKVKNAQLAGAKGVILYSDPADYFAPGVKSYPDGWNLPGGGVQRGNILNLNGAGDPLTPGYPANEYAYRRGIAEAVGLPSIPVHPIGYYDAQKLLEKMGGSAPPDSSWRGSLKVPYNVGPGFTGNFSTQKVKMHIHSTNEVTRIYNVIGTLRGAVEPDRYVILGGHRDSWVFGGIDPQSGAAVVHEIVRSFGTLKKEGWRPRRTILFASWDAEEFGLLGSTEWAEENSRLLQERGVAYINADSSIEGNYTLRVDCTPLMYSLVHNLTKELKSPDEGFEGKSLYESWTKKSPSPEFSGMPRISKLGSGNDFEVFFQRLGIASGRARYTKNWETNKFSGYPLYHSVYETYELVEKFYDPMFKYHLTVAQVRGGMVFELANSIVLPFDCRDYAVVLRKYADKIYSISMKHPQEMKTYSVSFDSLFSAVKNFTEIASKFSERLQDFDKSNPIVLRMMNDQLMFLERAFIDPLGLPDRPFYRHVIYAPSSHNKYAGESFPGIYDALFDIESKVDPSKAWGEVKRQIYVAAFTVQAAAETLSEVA
T1 sequence (Q04609 whole entry): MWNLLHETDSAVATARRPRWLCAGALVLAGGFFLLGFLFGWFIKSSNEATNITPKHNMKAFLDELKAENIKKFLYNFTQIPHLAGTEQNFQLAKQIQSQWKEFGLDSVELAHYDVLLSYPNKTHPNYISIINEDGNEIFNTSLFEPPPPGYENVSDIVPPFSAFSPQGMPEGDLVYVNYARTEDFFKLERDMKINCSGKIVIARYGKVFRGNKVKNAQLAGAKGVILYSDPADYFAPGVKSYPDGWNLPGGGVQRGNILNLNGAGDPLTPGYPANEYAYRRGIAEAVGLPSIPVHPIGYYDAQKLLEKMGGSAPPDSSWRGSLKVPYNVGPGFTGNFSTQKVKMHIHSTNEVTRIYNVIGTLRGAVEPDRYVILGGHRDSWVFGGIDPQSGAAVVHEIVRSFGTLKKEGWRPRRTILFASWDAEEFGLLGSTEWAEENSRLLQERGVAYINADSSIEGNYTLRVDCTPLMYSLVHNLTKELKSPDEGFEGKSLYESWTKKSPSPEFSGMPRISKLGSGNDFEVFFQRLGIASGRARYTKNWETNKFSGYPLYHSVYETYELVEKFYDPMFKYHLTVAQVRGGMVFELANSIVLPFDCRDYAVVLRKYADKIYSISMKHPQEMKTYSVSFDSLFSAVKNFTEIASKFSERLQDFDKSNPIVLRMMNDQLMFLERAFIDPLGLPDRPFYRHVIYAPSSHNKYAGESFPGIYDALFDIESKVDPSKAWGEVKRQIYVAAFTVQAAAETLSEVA

B1: PSMB1088 (antibody, human IgG1, kappa, V domains shown)
VH: EVQLVESGGGVVQPGRSLRLSCAASGFTFSSYDMHWVRQAPGKGLEWVTVISFDGSNKYYVDSVKGRFTISRDNSKNTLYLQMNSLRAEDTAVYYCARTYYDILTGYSHYSYGMDVWGQGTTVTVSS
VL: EIVMTQSPSSLSASVGDRVTITCRASQGISNYLAWYQQKPGKVPKLLIYATSTLQSGVPSRFSGSGSGTDFILTISSLQPEDVANYYCQKYNSAPFTFGPGTKVEIKR
notes: huIgG1, kappa light chain
[1]
  EC50: 12400 pM
[2]
  Kd: 970 pM
  koff: 2.85e-05 s⁻¹
  kon: 29400 M⁻¹ s⁻¹

B2: PSMB1113 (antibody, human IgG1, kappa, V domains shown)
VH: EVQLVESGGGLVKPGGSLRLSCAASGFTLSIYSMNWVRQAPGKGLEWVSSISSSSSYIFYADSVKGRFTISRDNAKNSLFLQMNSLRAEDTAVYYCARSSYGADYWGQGTLVTVSS
VL: EIVMTQSPSSLSASVGDRVTITCRASQDITNFLAWYQQKPGKVPKLLIYTASTLQSGVPSRFSGSGSGTDFTLTISSLQPEDVATYYCQKYNSAPLTFGGGTKLEIKR
notes: huIgG1, kappa light chain
[1]
  EC50: 2520 pM
[2]
  Kd: 1160 pM
  koff: 6.65e-05 s⁻¹
  kon: 57300 M⁻¹ s⁻¹

B3: PSMB1156 conjugated to maleimide-PEG4-vcPAB-MMAF (antibody, human IgG1, lambda, V domains shown)
VH: EVQLVESGGGVVQPGRSLRLSCAASGFTFTSYGMHWVRQAPGKGLEWVAVISYDGSNKYYADSVKGRFTISRDNSKNTLYLQMNSLRAEDTAVYYCAREHYDSSGYYHGYYGMDVWGQGTTVTVSS
VL: not shown
modifications: maleimide-PEG4-vcPAB-MMAF and N-ethyl maleimide on reduced cysteines (sites not given)
[3]
  C4-2B IC50 (cytotoxicity, vcMMAF ADC, DAR 2.9, 72 h): 40 pM

B4: PSMB1156 conjugated to MC-GGFG-DX8951 (antibody, human IgG1, lambda, V domains shown)
VH: EVQLVESGGGVVQPGRSLRLSCAASGFTFTSYGMHWVRQAPGKGLEWVAVISYDGSNKYYADSVKGRFTISRDNSKNTLYLQMNSLRAEDTAVYYCAREHYDSSGYYHGYYGMDVWGQGTTVTVSS
VL: not shown
modifications: MC-GGFG-DX8951 on reduced cysteines, DAR 8.0
[4]
  IC50 (cytotoxicity on 22RV1 cells, DX8951 ADC, DAR 8, 6 d): 1400 pM

B5: PSMB1156 (antibody, human IgG1, lambda, V domains shown)
VH: EVQLVESGGGVVQPGRSLRLSCAASGFTFTSYGMHWVRQAPGKGLEWVAVISYDGSNKYYADSVKGRFTISRDNSKNTLYLQMNSLRAEDTAVYYCAREHYDSSGYYHGYYGMDVWGQGTTVTVSS
VL: not shown
notes: huIgG1, lambda light chain
[1]
  EC50: 633 pM
[2]
  Kd: 548 pM
  koff: 0.000168 s⁻¹
  kon: 306000 M⁻¹ s⁻¹

B6: PSMB1157 conjugated to maleimide-PEG4-vcPAB-MMAF (antibody, human IgG1, lambda, V domains shown)
VH: EVQLVESGGGVVQPGRSLRLSCAASVRTFSGYGMHWVRQVPGKGLEWVAVISYDGSNRYYADSVKGRFTISRDNSKNTLYLQMNSLRTEDTAVYYCARDGNWGSLDLYFDLWGRGTLVTVSS
VL: QSVLTQPPSVSGAPGQRVTISCTGSSSNIGADYDVHWYQQLPGTAPKLLIYVNNNRPSGVPDRFSGSRSGTSASLAITGLQADDEADYYCQSYDNTLSGVVFGGGTKLTVLG
modifications: maleimide-PEG4-vcPAB-MMAF and N-ethyl maleimide on reduced cysteines (sites not given)
[3]
  C4-2B IC50 (cytotoxicity, vcMMAF ADC, DAR 3.6, 72 h): 30 pM

B7: PSMB1157 conjugated to MC-GGFG-DX8951 (antibody, human IgG1, lambda, V domains shown)
VH: EVQLVESGGGVVQPGRSLRLSCAASVRTFSGYGMHWVRQVPGKGLEWVAVISYDGSNRYYADSVKGRFTISRDNSKNTLYLQMNSLRTEDTAVYYCARDGNWGSLDLYFDLWGRGTLVTVSS
VL: QSVLTQPPSVSGAPGQRVTISCTGSSSNIGADYDVHWYQQLPGTAPKLLIYVNNNRPSGVPDRFSGSRSGTSASLAITGLQADDEADYYCQSYDNTLSGVVFGGGTKLTVLG
modifications: MC-GGFG-DX8951 on reduced cysteines, DAR 8.0
[4]
  IC50 (cytotoxicity on 22RV1 cells, DX8951 ADC, DAR 8, 6 d): 2200 pM

B8: PSMB1157 (antibody, human IgG1, lambda, V domains shown)
VH: EVQLVESGGGVVQPGRSLRLSCAASVRTFSGYGMHWVRQVPGKGLEWVAVISYDGSNRYYADSVKGRFTISRDNSKNTLYLQMNSLRTEDTAVYYCARDGNWGSLDLYFDLWGRGTLVTVSS
VL: QSVLTQPPSVSGAPGQRVTISCTGSSSNIGADYDVHWYQQLPGTAPKLLIYVNNNRPSGVPDRFSGSRSGTSASLAITGLQADDEADYYCQSYDNTLSGVVFGGGTKLTVLG
notes: huIgG1, lambda light chain
[1]
  EC50: 381 pM
[2]
  Kd: 1420 pM
  koff: 0.000274 s⁻¹
  kon: 194000 M⁻¹ s⁻¹

B9: PSMB1183 conjugated to maleimide-PEG4-vcPAB-MMAF (antibody, human IgG1, lambda, V domains shown)
VH: QVQLQESGPGLVKSSETLSLTCTVSGGSISSYYWNWIRQPAGKGLEWIGRIYSSGNTDYNPSLKSRVTMSVDTSKNQFSLKLISVTAADTAVYYCARGRGANVGLFDYWGQGTLVTVSS
VL: QSALTQPPSVSGAPGQRVTISCTGSNSNIGANYDVHWYQHLPGTAPKLLIYGNINRPLGVPDRFSGSRSGTSASLAITGLQAEDEADYYCQSYDFSLSGSVFGVGTKLTVLG
modifications: maleimide-PEG4-vcPAB-MMAF and N-ethyl maleimide on reduced cysteines (sites not given)
[3]
  C4-2B IC50 (cytotoxicity, vcMMAF ADC, DAR 3.6, 72 h): 30 pM

B10: PSMB1183 conjugated to MC-GGFG-DX8951 (antibody, human IgG1, lambda, V domains shown)
VH: QVQLQESGPGLVKSSETLSLTCTVSGGSISSYYWNWIRQPAGKGLEWIGRIYSSGNTDYNPSLKSRVTMSVDTSKNQFSLKLISVTAADTAVYYCARGRGANVGLFDYWGQGTLVTVSS
VL: QSALTQPPSVSGAPGQRVTISCTGSNSNIGANYDVHWYQHLPGTAPKLLIYGNINRPLGVPDRFSGSRSGTSASLAITGLQAEDEADYYCQSYDFSLSGSVFGVGTKLTVLG
modifications: MC-GGFG-DX8951 on reduced cysteines, DAR 8.0
[4]
  IC50 (cytotoxicity on 22RV1 cells, DX8951 ADC, DAR 8, 6 d): 700 pM

B11: PSMB1183 (antibody, human IgG1, lambda, V domains shown)
VH: QVQLQESGPGLVKSSETLSLTCTVSGGSISSYYWNWIRQPAGKGLEWIGRIYSSGNTDYNPSLKSRVTMSVDTSKNQFSLKLISVTAADTAVYYCARGRGANVGLFDYWGQGTLVTVSS
VL: QSALTQPPSVSGAPGQRVTISCTGSNSNIGANYDVHWYQHLPGTAPKLLIYGNINRPLGVPDRFSGSRSGTSASLAITGLQAEDEADYYCQSYDFSLSGSVFGVGTKLTVLG
notes: huIgG1, lambda light chain
[1]
  EC50: 156 pM
[2]
  Kd: 928 pM
  koff: 0.000401 s⁻¹
  kon: 432000 M⁻¹ s⁻¹

B12: PSMB1098 (antibody, human IgG1, kappa, V domains shown)
VH: QVQLVESGGGVVQPGRSLRLSCAASGFTFSTYGMHWVRQAPGKGLEWVAFISYDGSNKYYADSVKGRFTISRDNSKHTLYLQMNSLRAEDTAVYYCAGRDNLRFLEWFMDVWGQGTTVTVSS
VL: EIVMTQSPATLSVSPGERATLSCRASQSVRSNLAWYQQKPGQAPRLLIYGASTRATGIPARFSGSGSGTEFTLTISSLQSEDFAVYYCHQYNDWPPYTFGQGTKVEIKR
notes: huIgG1, kappa light chain
[1]
  EC50: 2460 pM
[2]
  Kd: 540 pM
  koff: 2.85e-05 s⁻¹
  kon: 52700 M⁻¹ s⁻¹

B13: PSMB1154 conjugated to MC-GGFG-DX8951 (antibody, human IgG1, lambda, V domains shown)
VH: EVQLVESGGGEVQPGRSLRLTCAVSGFTLSRYGMHWVRQAPGKGLEWAALISYDGSNRYYADSVKGRFTISRDNSKNTVFLQMNSLRAEDTAVYYCARERESSGWFEGYFDYWGQGTTVTVSS
VL: QLVLTQPPSVSVAPGQTARITCGGNNIGSKSVHWYQQKPGQAPVLVVYDNSDRPSGIPERFSGSNSGNTATLTISRVEVGDEADYYCQVWDSSSDHVVFGGGTKLTVLG
modifications: MC-GGFG-DX8951 on reduced cysteines, DAR 8.0
[4]
  IC50 (cytotoxicity on 22RV1 cells, DX8951 ADC, DAR 8, 6 d): 800 pM

B14: PSMB1154 conjugated to maleimide-PEG4-vcPAB-MMAF (antibody, human IgG1, lambda, V domains shown)
VH: EVQLVESGGGEVQPGRSLRLTCAVSGFTLSRYGMHWVRQAPGKGLEWAALISYDGSNRYYADSVKGRFTISRDNSKNTVFLQMNSLRAEDTAVYYCARERESSGWFEGYFDYWGQGTTVTVSS
VL: QLVLTQPPSVSVAPGQTARITCGGNNIGSKSVHWYQQKPGQAPVLVVYDNSDRPSGIPERFSGSNSGNTATLTISRVEVGDEADYYCQVWDSSSDHVVFGGGTKLTVLG
modifications: maleimide-PEG4-vcPAB-MMAF and N-ethyl maleimide on reduced cysteines (sites not given)
[3]
  C4-2B IC50 (cytotoxicity, vcMMAF ADC, DAR 4, 72 h): 30 pM

B15: PSMB1154 (antibody, human IgG1, lambda, V domains shown)
VH: EVQLVESGGGEVQPGRSLRLTCAVSGFTLSRYGMHWVRQAPGKGLEWAALISYDGSNRYYADSVKGRFTISRDNSKNTVFLQMNSLRAEDTAVYYCARERESSGWFEGYFDYWGQGTTVTVSS
VL: QLVLTQPPSVSVAPGQTARITCGGNNIGSKSVHWYQQKPGQAPVLVVYDNSDRPSGIPERFSGSNSGNTATLTISRVEVGDEADYYCQVWDSSSDHVVFGGGTKLTVLG
notes: huIgG1, lambda light chain
[1]
  EC50: 306 pM
[2]
  Kd: 1090 pM
  koff: 0.00019 s⁻¹
  kon: 174000 M⁻¹ s⁻¹

B16: PSMB1195 (antibody, human IgG1, kappa, V domains shown)
VH: EVQLVESGGGLVKPGGSLRLSCAASGFTFSSYSLNWVRQAPGKGLEWVSSISSSSSYISYADAVKGRFTISRDNAKNSLYLQMNSLRAEDTAVYYCARDRGFLEDYYYYYGMDVWGQGTTVTVSS
VL: DIVMTQSPSSVSASVGDRVTITCRASQGISNWLAWYQQKPGKAPKLLIYVASSLQSGVPSRFSGSGSGTDFSLTISSLQPEDFATYYCQQAYSFPLTFGGGTKVEIKR
notes: huIgG1, kappa light chain
[1]
  EC50: 13800 pM
[2]
  Kd: 9450 pM
  koff: 0.000101 s⁻¹
  kon: 10700 M⁻¹ s⁻¹
